Experimental findings from PMC6155051, “Structures of insect Imp-L2 suggest an alternative strategy for regulating the bioavailability of insulin-like hormones” (Nature Communications, 2018) are described below.

Data set [1] addresses Drosophila imaginal morphogenesis protein-late 2 protein (Imp-L2) (Drosophila melanogaster) (UniProt Q09024). The data set can be described thus: ITC; Imp-L2 (12.8-22.6 uM) in the cell, hormone about tenfold greater injected; 50 mM Tris, 150 mM NaCl, pH 7.4; 25 C; hormone concentrations adjusted to a 1:1 stoichiometry. A general note: Isothermal titration calorimetry measures the heat released or taken up as one component is titrated into another.

Data set [2] deals with the molecule itself. The data set can be described thus: SEC-MALS; ligand-free Imp-L2, 1 mg/mL, 50 mM Tris pH 7.4, 50 mM NaCl; Superdex S200 10/300.
Data set [3] concerns the target Drosophila imaginal morphogenesis protein-late 2 protein (Imp-L2) (Drosophila melanogaster) (UniProt Q09024). Kind of data set: ITC; DILP5:Imp-L2 binding as a function of salt: 300 mM NaCl.
Data set [4] has the same target. The data set is described as above. The source holds these as a separate data set.
In data set [5] the target is T1, Drosophila imaginal morphogenesis protein-late 2 protein (Imp-L2) (Drosophila melanogaster, UniProt Q09024 26-267).
T1 chain: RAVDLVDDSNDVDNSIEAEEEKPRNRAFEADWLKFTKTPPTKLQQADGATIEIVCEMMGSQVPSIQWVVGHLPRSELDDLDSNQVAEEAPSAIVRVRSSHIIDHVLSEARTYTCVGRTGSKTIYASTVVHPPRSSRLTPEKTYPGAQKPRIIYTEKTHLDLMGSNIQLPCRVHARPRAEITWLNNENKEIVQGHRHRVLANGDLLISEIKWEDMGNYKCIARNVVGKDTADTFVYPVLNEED
The data set can be described thus: ITC; 300 mM NaCl (legend says 400 mM).

As usually defined, the Kd is the equilibrium constant for the complex coming apart. “Insulin X14 (ProB28Asp), fully monomeric mutant of human insulin (ligand)” registered a Kd in data set [1] of 135000 pM.

B1: Drosophila imaginal morphogenesis protein-late 2 protein (Imp-L2) (natural protein, Drosophila melanogaster, UniProt Q09024 26-267, looked up)
chain: RAVDLVDDSNDVDNSIEAEEEKPRNRAFEADWLKFTKTPPTKLQQADGATIEIVCEMMGSQVPSIQWVVGHLPRSELDDLDSNQVAEEAPSAIVRVRSSHIIDHVLSEARTYTCVGRTGSKTIYASTVVHPPRSSRLTPEKTYPGAQKPRIIYTEKTHLDLMGSNIQLPCRVHARPRAEITWLNNENKEIVQGHRHRVLANGDLLISEIKWEDMGNYKCIARNVVGKDTADTFVYPVLNEED
notes: signal peptide in the construct: full-length Drosophila Imp-L2 with the native signal peptide, secreted into the medium; After 3C cleavage, residues of the protease site should remain at the C-terminus (surmised); A selenomethionine-labelled form was also made; the apo structure was solved by MAD; also called Dm Imp-L2; apo-Imp-L2; source: baculovirus-infected Sf9 cells, purified from conditioned …
In general, stoichiometry N refers to a count of units in the complex or per binding partner. In the case of B1, in data set [2], the “stoichiometry N” value came out at 2.

B2: Drosophila insulin-like peptide 5, C4 variant (B2-B29) (ligand)
chain 1: NSLRACGPALMDMLRVACPNGFNSMFAK
chain 2: DFRGVVDSCCRNSCSFSTLRAYCDS
Take B2: the Kd in data set [3] stood at 5 pM; in data set [4], 1 pM; in data set [5] it was 5.4 pM; in data set [1] it was 8000 pM.
